In the Immune Epitope Database (IEDB):
Each block holds one sequence with its values, some of them ahead of it.

Legend:
[1] = target: HLA-A*24:02; experiment: IEDB peptide-MHC binding, purified MHC/competitive/fluorescence; ≥ and ≤ were set here for values at or beyond the usual limits of such assays
[2] = target: HLA-B*07:02; experiment: as above
[3] = target: HLA-A*02:01; experiment: as above
[4] = target: HLA-B*15:01; experiment: as above
[5] = target: HLA-B*15:03; experiment: IEDB peptide-MHC binding, purified MHC/competitive/radioactivity; filed as Kd, often an IC50 or EC50 that approximates it; ≥ and ≤ were set here for values at or beyond the usual limits of such assays; conditions: source organism: Vaccinia virus WR
[6] = target: HLA-B*51:01; experiment: IEDB peptide-MHC binding, purified MHC/direct/fluorescence; filed as Kd, often an IC50 or EC50 that approximates it; ≥ and ≤ were set here for values at or beyond the usual limits of such assays; conditions: source organism: Helicobacter pylori
[7] = target: HLA-B*83:01; experiment: IEDB peptide-MHC binding, purified MHC/competitive/fluorescence; filed as Kd, often an IC50 or EC50 that approximates it; ≥ and ≤ were set here for values at or beyond the usual limits of such assays
[8] = target: HLA-B*45:06; experiment: as above
[9] = target: HLA-C*04:01; experiment: as above
[10] = target: HLA-B*15:42; experiment: as above
[11] = target: HLA-B*58:01; experiment: as above; conditions: source organism: Escherichia coli
[12] = target: HLA-A*68:02; experiment: as above; conditions: source organism: Yersinia pestis Nepal516
[13] = target: HLA-A*24:03; experiment: as above; conditions: source organism: Encephalitozoon cuniculi GB-M1
[14] = target: HLA-A*02:19; experiment: as above; conditions: source organism: Encephalitozoon cuniculi GB-M1
[15] = target: HLA-B*51:01; experiment: as above; conditions: source organism: Encephalitozoon cuniculi GB-M1
[16] = target: HLA-B*39:01; experiment: as above; conditions: source organism: Encephalitozoon cuniculi GB-M1
[17] = target: HLA-B*27:03; experiment: as above; conditions: source organism: Encephalitozoon cuniculi GB-M1
[18] = target: HLA-A*26:01; experiment: as above; conditions: source organism: Encephalitozoon cuniculi GB-M1
[19] = target: HLA-B*18:01; experiment: as above; conditions: source organism: Encephalitozoon cuniculi GB-M1
[20] = target: HLA-A*02:01; experiment: as above; conditions: source organism: Encephalitozoon cuniculi GB-M1
[21] = target: HLA-B*57:01; experiment: as above; conditions: source organism: Encephalitozoon cuniculi GB-M1
[22] = target: HLA-B*15:01; experiment: as above; conditions: source organism: Encephalitozoon cuniculi GB-M1
[23] = target: HLA-A*02:11; experiment: as above; conditions: source organism: Encephalitozoon cuniculi GB-M1
[24] = target: HLA-A*03:01; experiment: as above; conditions: source organism: Encephalitozoon cuniculi GB-M1
[25] = target: HLA-A*29:02; experiment: as above; conditions: source organism: Encephalitozoon cuniculi GB-M1
[26] = target: HLA-A*02:12; experiment: as above; conditions: source organism: Encephalitozoon cuniculi GB-M1
[27] = target: HLA-B*46:01; experiment: as above
[28] = target: HLA-A*02:03; experiment: as above; conditions: source organism: Encephalitozoon cuniculi GB-M1
[29] = target: HLA-A*69:01; experiment: IEDB peptide-MHC binding, purified MHC/direct/fluorescence; filed as Kd, often an IC50 or EC50 that approximates it; ≥ and ≤ were set here for values at or beyond the usual limits of such assays; conditions: source organism: Escherichia coli O157:H7
[30] = target: HLA-A*01:01; experiment: as above; conditions: source organism: Escherichia coli O157:H7
[31] = target: HLA-A*11:01; experiment: as above; conditions: source organism: Escherichia coli O157:H7
[32] = target: HLA-C*07:02; experiment: as above; conditions: source organism: Escherichia coli O157:H7 str. EDL933
[33] = target: HLA-B*44:02; experiment: as above; conditions: source organism: Escherichia coli O157:H7
[34] = target: HLA-B*08:01; experiment: as above; conditions: source organism: Escherichia coli O157:H7
[35] = target: HLA-A*26:01; experiment: as above; conditions: source organism: Escherichia coli O157:H7
[36] = target: HLA-A*31:01; experiment: as above; conditions: source organism: Escherichia coli O157:H7
[37] = target: HLA-B*07:02; experiment: as above; conditions: source organism: Escherichia coli O157:H7
[38] = target: HLA-B*40:01; experiment: as above
[39] = target: HLA-C*06:02; experiment: as above
[40] = target: HLA-A*02:01; experiment: as above; conditions: source organism: Escherichia coli O157:H7
[41] = target: HLA-B*15:01; experiment: as above; conditions: source organism: Escherichia coli O157:H7
[42] = target: HLA-A*03:01; experiment: as above; conditions: source organism: Escherichia coli O157:H7
[43] = target: HLA-B*58:01; experiment: as above; conditions: source organism: Escherichia coli O157:H7
[44] = target: HLA-B*27:05; experiment: as above; conditions: source organism: Escherichia coli O157:H7
[45] = target: HLA-C*14:02; experiment: as above; conditions: source organism: Burkholderia vietnamiensis G4
[46] = target: HLA-C*15:02; experiment: as above; conditions: source organism: Burkholderia vietnamiensis G4
[47] = target: HLA-B*18:01; experiment: as above; conditions: source organism: Bordetella avium
[48] = source organism: Zaire ebolavirus
[49] = source organism: Vaccinia virus
[50] = source organism: Helicobacter pylori 26695
[51] = source organism: Sudan ebolavirus
[52] = source organism: Yersinia pestis Nepal516
[53] = source organism: human gammaherpesvirus 4
[54] = source organism: Burkholderia vietnamiensis G4

Sequence: ARLLNLSGV
IC50 [1, 48]: 32.8 µM
IC50 [2, 48]: ≥ 152 µM
IC50 [3, 48]: 9.98 µM

Sequence: FANPLSNPF
IC50 [1, 49]: 2.78 µM
IC50 [2, 49]: 69.1 µM
IC50 [3, 49]: 2.53 µM
IC50 [4, 49]: 5.74 µM
Kd [5]: 0.00192 µM

Sequence: FPIQDFPII
Kd [6]: 0.156 µM
Kd [7, 50]: 2.74 µM
Kd [8, 50]: ≥ 5 µM
Kd [9, 50]: ≥ 5 µM
Kd [10, 50]: ≥ 5 µM

Sequence: FQKAFSMPL
IC50 [1, 51]: 27.5 µM
IC50 [2, 51]: 16 µM
IC50 [3, 51]: 0.784 µM
IC50 [4, 51]: 2.11 µM

Kd [11]: ≥ 20 µM
Sequence: KGIHPQNHL

Sequence: LLQRWGGTC
IC50 [2, 48]: ≥ 473 µM
IC50 [3, 48]: 2.49 µM
IC50 [4, 48]: 41.3 µM

Sequence: MTHPQSEAA
Kd [12]: ≤ 0.0001 µM
Kd [7, 52]: ≥ 5 µM
Kd [9, 52]: ≥ 5 µM
Kd [10, 52]: ≥ 5 µM

Kd [13]: ≥ 20 µM
Kd [14]: ≥ 20 µM
Kd [15]: ≥ 20 µM
Kd [16]: ≥ 20 µM
Kd [17]: ≥ 20 µM
Kd [18]: ≥ 20 µM
Kd [19]: ≥ 20 µM
Kd [20]: ≥ 20 µM
Kd [21]: ≥ 20 µM
Kd [22]: ≥ 20 µM
Kd [23]: ≥ 20 µM
Kd [24]: ≥ 20 µM
Kd [25]: ≥ 20 µM
Kd [26]: 0.298 µM
Kd ([27]; source organism: Encephalitozoon cuniculi GB-M1): ≥ 20 µM
Kd [28]: ≥ 20 µM
Sequence: NLFEIEWEE

Sequence: RPVVLTGGT
IC50 ([1]; source organism: Variola virus): 0.104 µM
IC50 ([2]; source organism: Variola virus): 24.1 µM
IC50 ([3]; source organism: Variola virus): ≥ 89.9 µM

Kd [29]: ≥ 20 µM
Kd [30]: ≥ 20 µM
Kd [31]: ≥ 20 µM
Kd [32]: 0.041 µM
Kd [33]: ≥ 20 µM
Kd [34]: 1.9 µM
Kd [35]: ≥ 20 µM
Kd [36]: ≥ 20 µM
Kd [37]: ≥ 20 µM
Kd ([38]; source organism: Escherichia coli O157:H7): ≥ 20 µM
Kd ([39]; source organism: Escherichia coli O157:H7 str. EDL933): 0.022 µM
Kd [40]: ≥ 20 µM
Kd [41]: ≥ 20 µM
Kd [42]: ≥ 20 µM
Kd [43]: ≥ 20 µM
Kd [44]: 0.12 µM
Sequence: RRNDVARIF

Sequence: RRVRRRVLV
Kd [39, 53]: 0.316 µM

Sequence: WEMRAGREI
Kd [7, 53]: ≥ 5 µM
Kd [8, 53]: ≥ 5 µM
Kd [9, 53]: ≥ 5 µM
Kd [10, 53]: ≥ 5 µM

Sequence: WMRWGGWPF
Kd [45]: 4.72 µM
Kd [46]: ≥ 20 µM
Kd ([38]; source organism: Bordetella avium): 0.512 µM
Kd [39, 54]: ≥ 20 µM
Kd [47]: 4.66 µM
Kd [7, 54]: ≥ 5 µM
Kd [8, 54]: ≥ 5 µM
Kd [27, 54]: 0.418 µM
Kd [10, 54]: ≥ 5 µM
